Test results published in publication PMC5701160.

Biological target: PSI core complex (Haematococcus pluvialis (endogenous in strain K-0084))
Assay: estimate from pigment ratios (HPLC) of the isolated B5 fraction; from Chl a/b and Chl/Car ratios, assuming 3.4 Cars per Lhca subunit and 100 Chl a per PSI core complex

## LHCI antenna proteins
  stoichiometry N (Lhca proteins per P700): 5
